For this series the following is noted: Rhodopseudomonas palustris (strain ATCC BAA-98 / CGA009); pH 6.5; 25 °C; GdnHCl; CD; MES 20 mM; NaCl 40 mM; whole UniProt chain shown.

B1: Cytochrome c' wild type, P00149 (protein)
chain: MKLRIATIAGLVVLGSGFAVAQTDVIAQRKAILKQMGEATKPIAAMLKGEAKFDQAVVQKSLAAIADDSKKLPALFPADSKTGGDTAALPKIWEDKAKFDDLFAKLAAAATAAQGTIKDEASLKANIGGVLGNCKSCHDDFRAKKS
As to B1, the denaturant m value came out at 5.12 kcal/mol/M, the “denaturant midpoint (higher = more stable)” value was 1.71 M and the unfolding free energy was determined as 8.77 kcal/mol.

Values taken from FireProtDB (doi:10.1016/j.jmb.2009.07.074).
